The Human Domainome abundance scans (Beltran et al. 2025)
± gives the uncertainty stated by the source.

B1: Pituitary-specific positive transcription factor 1, residues 130 to 198; numbered along this chain, P28069 (parent)
chain: RELEKFANEFKVRRIKLGYTQTNVGEALAAVHGSEFSQTTICRFENLQLSFKNACKLKAILSKWLEEAE
B2: POU domain, class 4, transcription factor 1, residues 266 to 347; numbered along this chain, Q01851 (parent)
chain: RELEAFAERFKQRRIKLGVTQADVGSALANLKIPGVGSLSQSTICRFESLTLSHNNMIALKPILQAWLEEAEGAQREKMNKP

Variants of: B1
Assay: abundance fitness (aPCA) (normalised: wild type 0, dead -1); higher = more abundant; growth selection in yeast, the domain comes from the species named
Conditions: Homo sapiens

RELEKFANEFKVRRIKLGYTQTNVGEALAAVHGSEFSQTTICRFENLQLSFKNACKLKAILSKWLEELE and RELEKFANEFKVRRIKLGYTQTNVGEALAAVHGSEFSQTTICRFENLQLSFKNACKLKAILSKWLEESE are within error of each other in abundance fitness: -0.778 ± 0.17 for the first, -0.518 ± 0.15 for the second.

First: RELEKFANEFKVRRIKLGYTQTNVGEALAAVHGSEFSQTTICRFENLQLSFKNACKLKAILSKWLEEFE
Second: RELEKFANEFKVRRIKLGYTQTNVGEALAAVHGSEFSQTTICRFENLQLSFKNACKLKAILSKWLEEIE
The abundance fitness of the first is lower: -0.747 ± 0.23 for the first, 0.128 ± 0.45 for the second.

RELEKFANEFKVRRIKLGYTQTNVGEALAAVHGSEFSQTTICRFENLQLSFKNACKLKAILSKWLEEME and RELEKFANEFKVRRIKLGYTQTNVGEALAAVHGSEFSQTTICRFENLQLSFKNACKLKAILSKWLEEVE are within error of each other in abundance fitness: -0.061 ± 0.084 for the first, -0.071 ± 0.071 for the second.

RELEKFANEFKVRRIKLGYTQTNVGEALAAVHGSEFSQTTICRFENLQLSFKNACKLKAILSKWLEEHE and RELEKFANEFKVRRIKLGYTQTNVGEALAAVHGSEFSQTTICRFENLQLSFKNACKLKAILSKWLEERE are within error of each other in abundance fitness: -0.271 ± 0.1 for the first, -0.232 ± 0.077 for the second.

RELEKFANEFKVRRIKLGYTQTNVGEALAAVHGSEFSQTTICRFENLQLSFKNACKLKAILSKWLEETE and RELEKFANEFKVRRIKLGYTQTNVGEALAAVHGSEFSQTTICRFENLQLSFKNACKLKAILSKWLEENE are within error of each other in abundance fitness: -0.05 ± 0.13 for the first, -0.24 ± 0.077 for the second.

First: RELEKFANEFKVRRIKLGYTQTNVGEALAAVHGSEFSQTTICRFENLQLSFKNACKLKAILSKWLEEKE
Second: RELEKFANEFKVRRIKLGYTQTNVGEALAAVHGSEFSQTTICRFENLQLSFKNACKLKAILSKWLEEGE
The abundance fitness of the first is higher: 0.047 ± 0.15 for the first, -0.664 ± 0.15 for the second.

RELEKFANEFKVRRIKLGYTQTNVGEALAAVHGSEFSQTTICRFENLQLSFKNACKLKAILSKWLEEAV and RELEKFANEFKVRRIKLGYTQTNVGEALAAVHGSEFSQTTICRFENLQLSFKNACKLKAILSKWLEEAR are within error of each other in abundance fitness: -0.874 ± 0.29 for the first, -0.706 ± 0.13 for the second.

RELEKFANEFKVRRIKLGYTQTNVGEALAAVHGSEFSQTTICRFENLQLSFKNACKLKAILSKWLEEAQ and RELEKFANEFKVRRIKLGYTQTNVGEALAAVHGSEFSQTTICRFENLQLSFKNACKLKAILSKWLEEAC are within error of each other in abundance fitness: -0.635 ± 0.22 for the first, -0.537 ± 0.11 for the second.

RELEKFANEFKVRRIKLGYTQTNVGEALAAVHGSEFSQTTICRFENLQLSFKNACKLKAILSKWLEEAA and RELEKFANEFKVRRIKLGYTQTNVGEALAAVHGSEFSQTTICRFENLQLSFKNACKLKAILSKWLEEAD are within error of each other in abundance fitness: -0.436 ± 0.12 for the first, -0.28 ± 0.16 for the second.

RELEKFANEFKVRRIKLGYTQTNVGEALAAVHGSEFSQTTICRFENLQLSFKNACKLKAILSKWLEEAP and RELEKFANEFKVRRIKLGYTQTNVGEALAAVHGSEFSQTTICRFENLQLSFKNACKLKAILSKWLEEAF are within error of each other in abundance fitness: -0.433 ± 0.23 for the first, -0.616 ± 0.32 for the second.

RELEKFANEFKVRRIKLGYTQTNVGEALAAVHGSEFSQTTICRFENLQLSFKNACKLKAILSKWLEEAS and RELEKFANEFKVRRIKLGYTQTNVGEALAAVHGSEFSQTTICRFENLQLSFKNACKLKAILSKWLEEAL are within error of each other in abundance fitness: -0.4 ± 0.14 for the first, -0.719 ± 0.28 for the second.

Variants of: B2
Assay: as above
Conditions: Homo sapiens

Going from REGEAFAERFKQRRIKLGVTQADVGSALANLKIPGVGSLSQSTICRFESLTLSHNNMIALKPILQAWLEEAEGAQREKMNKP to REMEAFAERFKQRRIKLGVTQADVGSALANLKIPGVGSLSQSTICRFESLTLSHNNMIALKPILQAWLEEAEGAQREKMNKP, the abundance fitness rises from -0.523 ± 0.04 to -0.029 ± 0.048.

REIEAFAERFKQRRIKLGVTQADVGSALANLKIPGVGSLSQSTICRFESLTLSHNNMIALKPILQAWLEEAEGAQREKMNKP and REFEAFAERFKQRRIKLGVTQADVGSALANLKIPGVGSLSQSTICRFESLTLSHNNMIALKPILQAWLEEAEGAQREKMNKP are within error of each other in abundance fitness: -0.02 ± 0.1 for the first, -0.103 ± 0.065 for the second.

Compared with REAEAFAERFKQRRIKLGVTQADVGSALANLKIPGVGSLSQSTICRFESLTLSHNNMIALKPILQAWLEEAEGAQREKMNKP, REQEAFAERFKQRRIKLGVTQADVGSALANLKIPGVGSLSQSTICRFESLTLSHNNMIALKPILQAWLEEAEGAQREKMNKP is lower in abundance fitness: -0.162 ± 0.042 for the first, -0.262 ± 0.052 for the second.

REDEAFAERFKQRRIKLGVTQADVGSALANLKIPGVGSLSQSTICRFESLTLSHNNMIALKPILQAWLEEAEGAQREKMNKP and RENEAFAERFKQRRIKLGVTQADVGSALANLKIPGVGSLSQSTICRFESLTLSHNNMIALKPILQAWLEEAEGAQREKMNKP are within error of each other in abundance fitness: -0.366 ± 0.099 for the first, -0.287 ± 0.12 for the second.

Going from RECEAFAERFKQRRIKLGVTQADVGSALANLKIPGVGSLSQSTICRFESLTLSHNNMIALKPILQAWLEEAEGAQREKMNKP to REHEAFAERFKQRRIKLGVTQADVGSALANLKIPGVGSLSQSTICRFESLTLSHNNMIALKPILQAWLEEAEGAQREKMNKP, the abundance fitness rises from -0.901 ± 0.22 to -0.203 ± 0.12.

First: REEEAFAERFKQRRIKLGVTQADVGSALANLKIPGVGSLSQSTICRFESLTLSHNNMIALKPILQAWLEEAEGAQREKMNKP
Second: REKEAFAERFKQRRIKLGVTQADVGSALANLKIPGVGSLSQSTICRFESLTLSHNNMIALKPILQAWLEEAEGAQREKMNKP
The abundance fitness of the first is higher: -0.247 ± 0.043 for the first, -0.564 ± 0.094 for the second.

Work on CELEAFAERFKQRRIKLGVTQADVGSALANLKIPGVGSLSQSTICRFESLTLSHNNMIALKPILQAWLEEAEGAQREKMNKP yielded an abundance fitness of -0.053 ± 0.038.
